± gives the uncertainty stated by the source.
Test: self-splicing fitness, log relative to wild type (ln ratio); higher = more splicing; Tetrahymena group I intron in knt gene, E. coli kanamycin selection, DiMSum; sequences stand for … in CUCUCU…GGAGGGAAAAGUUAUCAGGCAUGCACCUGGUAGCUAGUCUUUAAACCAAUAGAUUGCAUCGGUUUAAAAGGCAAGACCGUCAAAUUGCGGGAAAGGGGUCAACAGCCGUUCAGUACCAAGUCUCAGGGGAAACUUUGAGAUGGCCUUGCAAAGGGUAUGGUAAUAAGCUGACGGACAUGGUCCUAACCACGCAGCCAAGUCCUAAGUCAACAGAUCUUCUGUUGAUAUGGAUGCAGUUCACAGACUAAAUGUCGGUCGGGGAAGAUGUAUUCUUCUCAUAAGAUAUAGUCGGACCUCUCCUUAAUGGGAGCUAGCGGAUGAAGUGAUGCAACACUGGAGCCGCUGGGAACUAAUUUGUAUGCGAAAGUAUAUUGAUUAGUUUUGGAGUACUCGUGGUCG
Outline: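 Six replicate transformations of E. coli BL21(DE3) with a pET-22b(+) library were grown overnight at 37°C or 30°C. The library randomised all eight P1ex-region intron nucleotides, the intron lying in the knt kanamycin-resistance gene, and plates were LB agar with or without 25 μg/mL kanamycin plus 100 μg/mL carbenicillin, 50 μM IPTG and 0.2% rhamnose. Pooled colonies were amplicon-sequenced on an Illumina HiSeq 2500, and fitness is the DiMSum error-weighted combination of wild-type-normalised replicate fold changes, kanamycin versus none.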

| Sequence | self-splicing fitness (ln) (30 °C) | self-splicing fitness (ln) (37 °C) |
| --- | --- | --- |
| GAGGAGCAAUAUUACGAGUG | -2.88 ± 0.35 | -2.5 ± 0.23 |
| UCCUAGCAAUAUUACGCAGU | -3.03 ± 0.15 | -2.54 ± 0.2 |
| CGUCAGCAAUAUUACGGCUG | -1.51 ± 0.12 | -1.24 ± 0.23 |
| AAUUAGCAAUAUUACGCCCC | -0.573 ± 0.33 | -0.798 ± 0.49 |
| UAGUAGCAAUAUUACGAUUA | -0.381 ± 0.099 | 0.0431 ± 0.098 |
| CGCUAGCAAUAUUACGGAUG | -1.13 ± 0.075 | -0.108 ± 0.096 |
| AACAAGCAAUAUUACGGCGG | -0.998 ± 0.078 | -0.826 ± 0.1 |
| UGACAGCAAUAUUACGCGAC | -1.82 ± 0.14 | -1.86 ± 0.19 |
| GAAGAGCAAUAUUACGGCUA | -1.5 ± 0.15 | -0.512 ± 0.15 |
| ACGUAGCAAUAUUACGCAGC | -3.26 ± 0.26 | -2.71 ± 0.25 |
| AUAGAGCAAUAUUACGCCGU | -0.866 ± 0.21 | 0.511 ± 0.26 |
| GUCUAGCAAUAUUACGCACG | -1.27 ± 0.18 | -1.14 ± 0.18 |
| CGGCAGCAAUAUUACGAUAU | -4.27 ± 0.23 | -1.51 ± 0.098 |
| CGAUAGCAAUAUUACGGGUC | -4.07 ± 0.46 | -2.46 ± 0.3 |
| CUAUAGCAAUAUUACGCCAC | – | -1.21 ± 0.42 |
| CCCAAGCAAUAUUACGGCAG | -3.73 ± 0.17 | -1.65 ± 0.12 |
| GAACAGCAAUAUUACGAUCG | -0.614 ± 0.085 | -0.564 ± 0.11 |
| CCUGAGCAAUAUUACGAUGA | -2.57 ± 0.2 | -1.44 ± 0.18 |
| AAGUAGCAAUAUUACGGAAA | -2.49 ± 0.3 | -1.84 ± 0.24 |
| GAGGAGCAAUAUUACGCAUG | -3.19 ± 0.48 | -2.65 ± 0.3 |
| GCUAAGCAAUAUUACGCGUG | -1.88 ± 0.092 | -1.44 ± 0.12 |
| GCAUAGCAAUAUUACGUUUC | -4.77 ± 0.26 | -3.01 ± 0.15 |
| ACCAAGCAAUAUUACGAGCA | -2.53 ± 0.12 | -0.958 ± 0.099 |
| UACCAGCAAUAUUACGUCUU | -1.99 ± 0.08 | -0.209 ± 0.086 |

| Sequence | self-splicing fitness (ln) (30 °C) | self-splicing fitness (ln) (37 °C) |
| --- | --- | --- |
| UAGCAGCAAUAUUACGUUGU | -3.72 ± 0.21 | -3.08 ± 0.26 |
| CAGCAGCAAUAUUACGGUUA | -0.417 ± 0.06 | -0.163 ± 0.059 |
| CUGAAGCAAUAUUACGGACG | 0.0263 ± 0.084 | 0.166 ± 0.1 |
| CGUCAGCAAUAUUACGAAUC | -3.1 ± 0.27 | -0.891 ± 0.33 |
| UAUGAGCAAUAUUACGCCAG | -2.96 ± 0.4 | -1.21 ± 0.38 |
| GAAUAGCAAUAUUACGAACU | -0.471 ± 0.085 | 0.508 ± 0.1 |
| UGGAAGCAAUAUUACGAACG | -0.465 ± 0.24 | -0.592 ± 0.32 |
| AACUAGCAAUAUUACGUUCU | -1.55 ± 0.061 | -1.14 ± 0.079 |
| GAUAAGCAAUAUUACGCUAG | -2.45 ± 0.15 | 0.0994 ± 0.13 |
| GAGGAGCAAUAUUACGCUUC | – | -3.68 ± 0.46 |
| GGUUAGCAAUAUUACGUUUC | -3.04 ± 0.21 | -0.645 ± 0.18 |
| AUGUAGCAAUAUUACGUCCU | -0.674 ± 0.13 | 0.252 ± 0.19 |
| UAAAAGCAAUAUUACGUUGC | -3.72 ± 0.27 | -3.17 ± 0.4 |
| ACGUAGCAAUAUUACGUGCC | -1.54 ± 0.22 | -0.492 ± 0.24 |
| UUGUAGCAAUAUUACGCUCA | -1.27 ± 0.14 | 0.0359 ± 0.18 |
| GCGAAGCAAUAUUACGGUGU | -3.59 ± 0.14 | -2.66 ± 0.13 |
| UGAAAGCAAUAUUACGAAGC | – | -2.07 ± 0.28 |
| CGUAAGCAAUAUUACGUACC | -1.94 ± 0.21 | -1.76 ± 0.24 |
| AAGCAGCAAUAUUACGAACG | -2.31 ± 0.094 | -0.98 ± 0.11 |
| AAUUAGCAAUAUUACGUGUC | -3.59 ± 0.29 | -1.79 ± 0.2 |
| UCUUAGCAAUAUUACGUGUA | -0.944 ± 0.17 | -1.19 ± 0.2 |
| AUUAAGCAAUAUUACGAUAG | -3.89 ± 0.37 | -2.55 ± 0.31 |
| GCUCAGCAAUAUUACGUCAG | -4.87 ± 0.42 | -3.23 ± 0.16 |
| UGCGAGCAAUAUUACGCUUA | -1.98 ± 0.16 | -1.46 ± 0.22 |
